The test addresses full-length NiVM G on transfected cells (Nipah virus, Malaysia strain (NiVM), UniProt Q9IH62). Nature of the test: flow cytometry on cells. (In general: A flow cytometer gives signals particle by particle.)

These results are taken from doi:10.1101/2025.02.16.638571 (bioRxiv, 2025).

B1: mAb LN3D3 (antibody, V domains shown)
VH: EVKLEESGPELVKPGASVKMSCKASGYTFTNYVMHWVKQKPGQGLEWIGYVNPYNDGTQYNEKFRDKATLTSDKSSSTVYMELNSLTSEDSAVYYCTRGDYPYWVFEVWGAGTTVTVSS
VL: EIQMTQSPATLSVTPGDSVSLSCRASQSISNNLHWYQQKSHESPRLLIKYASQSISGIPSRFSGSGSGTDFTLSINNLETEDFGMYFCQHSDSWPFTFGSGTKLEIK
In the case of B1, the binding result was “binds”.

B2: mAb S1E2 (antibody, V domains shown)
VH: QMQLQESGPGLVKPSQSLSLTCSVTGYSITSGYYWNWIRQFSGNKLEWMGYINHDGSKNYNPSLKNRISITRDTSKNQFFLKLNSVTTEDTATYYCARDYGSYYYPMDYWGQGTSVTVSS
VL: EIVLTQSPPIMSASPGEKVTITCSASSSVTFMHWFQQKPGTSPKLWIFSTSNLASGVPARFSGSGSGTSYSLTISRMEAEDAATYYCQQRSSYPFTFGSGTKLEIK
Turning to B2, the binding result is on record as “binds”.

B3: mAb S2B10 (antibody, V domains shown)
VH: QMQLQESGPGLVKPSQSLSLTCTVTGYSITSDYAWNWIRQFPRNKLEWMGFITYSGSTSYNPSLKSRISLTRDTSKNQFFLQLSSVTTEDTATYYCARSGANWDWFAYWGQGTLVTVSA
VL: DIQMTQSPASLAVSLGQRATISCRASESVDNYGNSFMHWYQQKPGQPPKLLIYRASKLESGIPARFSGSGSRTDFTLTINPVEADDVATYHCQQSNEDPWTFGGGTKLEIK
In the case of B3, the binding result is “binds”.

B4: mAb LN1F9 (antibody, V domains shown)
VH: EVKLVESGGGLVKPGGSLKLSCAASGFSFRNYAMSWVRQSPEKRLEWVAEVSSGGGYTYYPDTVTGRFTISRDNAKNILYLEMSSLRSEDTAMYYCTRDPDSSGYLAWFAYWGQGTLVTVSA
VL: DILLTQSPASLSASVGETVTITCRASENINSYLAWYQQKQGKSPQLLVYNAKTLAEGVPSRFSGSGSDTQFSLKINTLQPEDFGTYYCQHHSGTPYTFGGGTKLEIK
As for B4, the binding result is recorded as “binds”.
